Measured values: PMC6519983

Molecular target: microtubules (MTs) formed in Xenopus egg extracts (Xenopus laevis (endogenous in egg extract))
Experiment: TIRF microscopy of GFP-TPX2 on microtubules; endogenous TPX2 immunodepleted and replaced with 20-30 nM (25 nM) GFP-TPX2 in Xenopus egg extract; 10 µM RanQ69L, 0.5 mM vanadate; silane-passivated coverslips; rise of TPX2 intensity at single pixels of individual de novo MTs before the first branch, normalised by the fluorescence of a single GFP-TPX2 molecule

Work on “Full-length TPX2 with N-terminal Strep II-6xHis-GFP-TEV site tags (natural protein)” yielded a binding rate (molecules μm^−1 s^−1) of 0.4.
